US20260256913A1 (UTC TYHERAPEUTICS SHANGNAI, published 2026)

B1: LACO A4025-9.3h11 (of CD27z-25-9.3) (bispecific antibody)
chain: QSALTQPASVSGSPGQSITVSCTGTRSDIGDYNYVSWYQQHPGKAPKLIIYDVSSRPSGVSNRYSGSKSGNTASLTISGLQAEDEADYYCSSYTSSSTLVFGGGTKVTVLGGGGSGGGGSGGGGSQVQLVQSGGGLVQPGGSLRLSCAASGFTFSSNWMSWVRQAPGKGLEWVANINQDGSEKYYVDSVKGRFTISRDNAKNSLYLQLNSLRAEDTAEYYCARGGYRYAYWGQGTLVTVSSGGGGSQVKLQESGPGLVKPSETLSITCTVSGFSLSDYGVHWVRQSPGKGLEWLGVIWAGGGTNYNSALMSRKTISKDNSKSQVFLKMSSLTAADTAVYYCARDKGYSYYYSMDYWGQGTTVTVSSGGGGSGGGGSGGGGSDIQLTQSPSSLSVSVGDRVTISCRASESVEYYVTSLMQWYQQKPGQAPKLLIFAASNVESGVPSRFSGSGSGTNFTLTISSVQEEDFAMYFCQQSRKVPYTFGGGTKLEIK
notes: Anti-CD40 scFv 4025 joined to anti-CD28 scFv 9.3h11, co-expressed with CD27z through T2A
B2: CD27-CAR (CD27z) (protein)
chain: ATPAPKSCPERHYWAQGKLCCQMCEPGTFLVKDCDQHRKAAQCDPCIPGVSFSPDHHTRPHCESCRHCNSGLLVRNCTITANAECACRNGWQCRDKECTECDPLPNPSLTARSSQALSPHPQPTHLPYVSEMLEARTAGHMQTLADFRQLPARTLSTHWPPQRSLCSSDFIRILVIFSGMFLVFTLAGALFLHQRRKYRSNKGESPVEPAEPCRYSCPREEEGSTIPIQEDYRKPEPACSPRVKFSRSADAPAYQQGQNQLYNELNLGRREEYDVLDKRRGRDPEMGGKPRRKNPQEGLYNELQKDKMAEAYSEIGMKGERRRGKGHDGLYQGLSTATKDTYDALHMQALPPR
B3: LACO A409-9.3h11 (of CD27z-9-9.3) (bispecific antibody)
chain: QAVLTQPPSASGAPGQRVSISCSGGSSNIGSHTVNWYQQLPGAAPRLLMFSNYQRPSGVPDRFSASKSGTSASLAISGLRSEDEADYYCAAWDGTLKGYVFGTGTKVTVLGGGGSGGGGSGGGGSEVQLVESGGGVVLPGRSLRLSCAASGFTLRSYGMHWVRQATGKGLEWVSAIGTAGDTYYPGSVKGRFTISRENAKNSLYLQMNSLRAGDTAVYYCARADRLGGYGMDVWGQGTTVTVSSGGGGSQVKLQESGPGLVKPSETLSITCTVSGFSLSDYGVHWVRQSPGKGLEWLGVIWAGGGTNYNSALMSRKTISKDNSKSQVFLKMSSLTAADTAVYYCARDKGYSYYYSMDYWGQGTTVTVSSGGGGSGGGGSGGGGSDIQLTQSPSSLSVSVGDRVTISCRASESVEYYVTSLMQWYQQKPGQAPKLLIFAASNVESGVPSRFSGSGSGTNFTLTISSVQEEDFAMYFCQQSRKVPYTFGGGTKLEIK
notes: Anti-CD40 scFv 409 joined to anti-CD28 scFv 9.3h11, co-expressed with CD27z through T2A

How the values were obtained:
[1] = molecular target: T1, CD40-Fc recombinant protein (human, UniProt P25942 21-193); assay: flow cytometry, CD40-Fc staining of transduced T cells at day 13
T1 construct: also called CD40-Fc protein; CD40-Fc antigen; not shown: Fc part; detected with anti-human IgG Fc antibody
Text: Lentivirus-based CART cells were generated using the following procedures: T cells were isolated from PBMC and activated by anti-CD3/CD28 beads (T cell:beads=1:3). […] At day 13, the CAR expression was detected using anti-CD27 antibody, and the expression of LACO was detected using CD40-Fc (FIG. 42A-42B and Table 10). Generally, the transduction efficiency was between 30% to 50%.

[2] = molecular target: CD40-Fc recombinant protein (human) (UniProt P25942); assay: flow cytometry, CD40-Fc staining of transduced T cells at day 13; control CAR without LACO

Row | Binder | LACO % (cells positive in CD40-Fc staining) [1] [%] | LACO/MFI (CD40-Fc staining) [1] [MFI] | LACO % (cells positive in CD40-Fc staining) [2] [%] | LACO/MFI (CD40-Fc staining) [2] [MFI]
1 | B1 | 51.4 | 221 | – | –
2 | B2 | – | – | 2.9 | 44.3
3 | B3 | 27.3 | 127 | – | –
